Experimental data from patent US10538569B2, “Fusion polypeptide containing GLP and immunoglobulin hybrid Fc and use thereof” (GENEXINE, INC., priority 2014, dated 2020).

What was measured:
[1] = cited from earlier work
[2] = PK profile of GLP-2-2G peptide, GLP-2-hyFc5 and GLP-2-hyFc9, subcutaneous, rats; design: species or system Sprague Dawley rats; conditions: in vivo, sc, rat, serum, GLP-2 ELISA kit
Method: In order to confirm the pharmacokinetic profiles (PK profiles) of the GLP-2-hyFc5 and GLP-2-hyFc9 fusion polypeptides prepared above, experiments were performed as follows.
Male Sprague Dawley rats (3 rats/group) were administered subcutaneously with respective proteins (GLP-2-2G peptide, GLP-2-hyFc5, and GLP-2-hyFc9). Blood samples were collected before the administration and after the administration at 0.08-, 0.16-, 0.5-, 2-, 4-, 8-, 24-, 48-, 96-, 120-, and 168 hours, respectively. The blood samples were stored at room temperature for 30 minutes for agglutination. The samples were centrifuged at 3000 rpm for 10 minutes to obtain serum from each sample and then stored in a deep freezer. The samples were quantitated by dilution to be analyzed in a position on a straight line of standard curve using GLP-2 kit (Millipore, Cat. No. EZGLP2-37K).

Row | half-life [2] [h] | Molecule | in-vivo half-life [1]
1 |  | glucagon like peptide-2 [GLP-2] | about 7 minutes
2 | 1.2 | CC[C@H](C)[C@H](NC(=O)[C@H](Cc1ccccc1)NC(=O)[C@H](CC(=O)O)NC(=O)[C@H](CCCNC(=N)N)NC(=O)[C@H](C)NC(=O)[C@H](C)NC(=O)[C@H](CC(C)C)NC(=O)[C@H](CC(N)=O)NC(=O)[C@H](CC(=O)O)NC(=O)[C@H](CC(C)C)NC(=O)[C@@H](NC(=O)[C@@H](NC(=O)[C@H](CC(N)=O)NC(=O)[C@H](CCSC)NC(=O)[C@H](CCC(=O)O)NC(=O)[C@H](CC(=O)O)NC(=O)[C@H](CO)NC(=O)[C@H](Cc1ccccc1)NC(=O)[C@H](CO)NC(=O)CNC(=O)[C@H](CC(=O)O)NC(=O)CNC(=O)[C@@H](N)Cc1c[nH]cn1)[C@@H](C)O)[C@@H](C)CC)C(=O)N[C@@H](CC(N)=O)C(=O)N[C@@H](Cc1c[nH]c2ccccc12)C(=O)N[C@@H](CC(C)C)C(=O)N[C@H](C(=O)N[C@@H](CCC(N)=O)C(=O)N[C@H](C(=O)N[C@@H](CCCCN)C(=O)N[C@H](C(=O)N[C@H](C(=O)N[C@@H](CC(=O)O)C(=O)O)[C@@H](C)O)[C@@H](C)CC)[C@@H](C)O)[C@@H](C)CC [GLP-2-2G, reference compound] | 
